These are literature values, as cited in PMC11394293.

pKd: −log10 of the molar value.

For this data set, the target named is s-Klotho KL1/KL2 (Homo sapiens) (UniProt Q9UEF7).
UniProt Q9UEF7, sequence (Q9UEF7 34-981): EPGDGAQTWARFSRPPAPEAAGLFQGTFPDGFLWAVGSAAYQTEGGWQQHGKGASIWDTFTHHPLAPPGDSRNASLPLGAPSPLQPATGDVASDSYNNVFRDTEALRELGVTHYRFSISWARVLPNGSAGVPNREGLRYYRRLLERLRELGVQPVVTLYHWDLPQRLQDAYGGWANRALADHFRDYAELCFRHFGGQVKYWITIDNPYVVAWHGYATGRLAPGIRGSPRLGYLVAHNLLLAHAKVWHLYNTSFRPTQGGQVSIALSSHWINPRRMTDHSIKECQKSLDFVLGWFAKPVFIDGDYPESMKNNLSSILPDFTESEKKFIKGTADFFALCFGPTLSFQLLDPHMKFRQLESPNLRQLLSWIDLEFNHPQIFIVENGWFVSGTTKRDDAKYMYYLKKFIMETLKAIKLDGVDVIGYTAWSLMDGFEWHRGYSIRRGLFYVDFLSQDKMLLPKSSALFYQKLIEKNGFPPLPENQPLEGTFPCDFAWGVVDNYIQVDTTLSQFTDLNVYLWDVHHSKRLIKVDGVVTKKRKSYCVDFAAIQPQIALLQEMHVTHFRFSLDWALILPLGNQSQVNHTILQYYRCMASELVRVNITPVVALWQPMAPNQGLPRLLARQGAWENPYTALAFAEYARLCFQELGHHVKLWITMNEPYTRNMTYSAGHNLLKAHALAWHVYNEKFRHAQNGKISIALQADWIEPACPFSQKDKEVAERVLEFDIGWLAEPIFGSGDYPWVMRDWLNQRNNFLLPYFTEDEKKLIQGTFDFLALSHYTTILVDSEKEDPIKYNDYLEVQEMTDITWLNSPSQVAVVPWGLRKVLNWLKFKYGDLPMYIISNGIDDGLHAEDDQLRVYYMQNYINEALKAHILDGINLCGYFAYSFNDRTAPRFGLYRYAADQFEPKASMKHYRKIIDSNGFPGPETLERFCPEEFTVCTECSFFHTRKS

FGF23 (from UniProt Q9GZV9): the pKd (usually the Kd on a negative log10 scale, so that one unit is a factor of ten) is 7.85.
